Consider five molecules from patent US20170267752A1 (Ablynx, published 2017).

The target of experiment [1] is membrane bound human TNF (mTNF), human TNF R77T/S78T variant on HEK293H-mTNF cells (human) (UniProt P01375). Briefly: competition FACS on HEK293H-mTNF cells, competitor Enbrel at EC90 (0.2 nM).
Experiment [2] shares this target. The experiment is described as follows: competition FACS on HEK293H-mTNF cells, competitor Enbrel at EC30 (0.02 nM).
A further experiment deals with biot-hTNFα (human, UniProt P01375 77-233, biotinylated (site not stated)). Briefly: competition ELISA according to Example 5 (assay not given). On the procedure:
The SHIME model consists of five reactors which sequentially simulate the stomach (acid conditions and pepsin digestion), small intestine (digestive processes) and the 3 regions of the large intestine, i.e. the ascending (“A”), transverse (“T”) and descending colon (“D”) (microbial processes). […] All GI fluids were provided by ProDigest (Technologiepark 4, 9052 Zwijnaarde, Belgium). The anti-TNF Nanobodies were tested for a maximum period of 39 hours in the GI-fluids. After the incubation in the GI-fluids, stability of the Nanobodies was determined via functionality testing in a competition ELISA. The Nanobodies were tested at a fixed concentration of 100 μg/ml at 37° C. in 5 different GI fluids in the SHIMS model. At different time-points samples were taken and stored in the −20° C. with or without the addition of protease inhibitors, according to the schedule in Table 5.1. The samples were transferred to coated ELISA plates and subsequently tested in the competition ELISA. […] After blocking, a fixed concentration of 0.3 nM biot-hTNFα together with a titration series of the variants in the different GI fluids was added. Detection was performed with extravidin-HRP.

For orientation: IC50 means the concentration that inhibits the measured activity by half.

Sequence of membrane bound human TNF (mTNF), human TNF R77T/S78T variant on HEK293H-mTNF cells (human) (P01375 whole entry, stated change not applied): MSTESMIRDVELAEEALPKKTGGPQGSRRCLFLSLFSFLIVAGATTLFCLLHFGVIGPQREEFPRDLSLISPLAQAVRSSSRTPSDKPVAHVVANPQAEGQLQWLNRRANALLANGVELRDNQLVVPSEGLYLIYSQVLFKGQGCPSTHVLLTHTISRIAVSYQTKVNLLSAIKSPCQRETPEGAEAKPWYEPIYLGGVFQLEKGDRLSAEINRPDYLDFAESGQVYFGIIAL
Sequence of biot-hTNFα (P01375 77-233 limits assumed): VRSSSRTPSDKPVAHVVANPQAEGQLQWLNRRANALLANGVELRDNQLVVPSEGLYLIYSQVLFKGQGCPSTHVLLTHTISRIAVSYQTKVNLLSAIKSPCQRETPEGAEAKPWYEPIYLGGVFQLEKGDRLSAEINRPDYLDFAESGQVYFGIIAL

B1: A016600021 (VHH)
VHH: DVQLVESGGGVVQPGGSLRLSCTASGFTFSTADMGWFRQAPGKGREFVARISGIDGTTYYDEPVKGRFTISRDNSKNTVYLQMNSLRPEDTALYYCRSPRYADQWSAYDYWGQGTLVTVSS
Consider B1, for which the IC50 in experiment [1] came out at 0.65 nM; in experiment [2], 0.43 nM; in the experiment with biot-hTNFα, 0.67 nM.

B2: A016600038 (VHH)
VHH: DVQLVESGGGVVQPGGSLRLSCTASGFTFSTADMGWFRQAPGKGREFVARISGIDGTTYYDEPVKGRFTISRDNAKNTVYLQMNSLRPEDTALYYCRSPRYADQWSAYDYWGQGTLVTVSS
In the case of B2, the figures for the IC50 in experiment [1] and in experiment [2] were 0.7 nM and 0.43 nM, respectively.

B3: A016600045 (VHH)
VHH: DVQLVESGGGVVQPGGSLRLSCTASGFTFSTADMGWFRQAPGKGREFVARISGIDGTTYYDEPVKGRFTISRDNSKNTVYLQMNSLRPEDTALYYCRSPRYADQWSAHDYWGQGTLVTVSS
For B3, the IC50 is 0.76 nM in experiment [1] and 0.54 nM in experiment [2].

B4: A016600052 (VHH)
VHH: DVQLVESGGGVVQPGGSLRLSCTASGFTFSTADMGWFRQAPGKGREFVCRISGIDGTTYYDEPVKGRFTCSRDNSKNTVYLQMNSLRPEDTALYYCRSPRYADQWSALDYWGQGTLVTVSS
notes: S49C, I69C (intradomain disulfide) and Y100dL
For B4, in the experiment with biot-hTNFα, the IC50 was 3.56 nM and the “fold increase of IC50 compared to 00021” value was 2 to 5 fold.

B5: A016600046 (VHH)
VHH: DVQLVESGGGVVQPGGSLRLSCTASGFTFSTADMGWFRQAPGKGREFVARISGIDGTTYYDEPVKGRFTISRDNSKNTVYLQMNSLRPEDTALYYCRSPRYADQWSALDYWGQGTLVTVSS
notes: Y100dL substitution in CDR3; also called A016600046 100dL; A016600046 Y100dL
In the case of B5, in the experiment with biot-hTNFα, the IC50 was found to be 1.13 nM and the “fold increase of IC50 compared to 00021” value is 2 to 5 fold.
